The values below come from PMC4392985.

The target in the assay is LlaKI restriction endonuclease (Lactococcus lactis KLDS4 (endogenous)). Kind of assay: SEC; Sephadex G-200 10/30 column, buffer B-100 (10 mM Tris-HCl pH 7.5, 1 mM EDTA, 10 mM 2-Mercaptoethanol, 100 mM NaCl), 0.5 mL/min; calibrated with protein standards; LlaKI found by assay of cleavage activity of the fractions; native about 112 kDa against 50 kDa denatured.

LlaKI restriction endonuclease (enzyme) came in with a stoichiometry N of 2.
